Data reported in patent publication US8367390B2, “Galactanase variants” (Novozymes A/S, priority 2002, dated 2013).

Tests used:
Format in all cases: biochemical
[1] = Degradation of MeGal3, products by HPAE-PAD; settings: for Gal2 in reaction products / Gal3 in reaction products / Gal in reaction products / MeGal2 in reaction products / MeGal3 in reaction products / MeGal in reaction products: MeGal3 0.25 mg/ml, pH 6.5, 37° C.
Method: (§1) The activity on the galacto-oligosaccharide substrates prepared as described above and on the commercially available galactobiose (Gal2, Megazyme) was studied for the four purified galactanases HIGAL, MTGAL, AAGAL and BLGAL. The buffers and temperatures used were: 25 mM sodium acetate, 0.5 mM CaCl2, 0.005% Triton X-100, pH 6.5 at 37° C. for HIGAL and MTGAL, 50 mM sodium acetate, 1 mM CaCl2, pH 4 at 30° C. for AAGAL and 50 mM Mes, 1 mM CaCl2, pH 6.5 at 30° C. for BLGAL. Enzyme concentrations used were 0.8 μg/ml for HIGAL, 0.2 microgram/ml for MTGAL, and 10 micrograms/ml for AAGAL and BLGAL. With HIGAL and MTGAL substrate concentrations were all 0.25 mg/ml, whereas 0.34 mg/ml Gal2, 0.050 mg/ml Gal3 and 0.067 mg/ml Gal4 were used for AAGAL and BLGAL. Enzyme activity in samples withdrawn after various incubation times was inactivated by heating to 95° C. for 10 min. Compositions of reaction products were analysed using HPAE-PAD (Dionex) applying a PA-100 column and a linear gradient of sodium acetate (0-0.18 M) in 0.15 M NaOH. Response factors of the individual carbohydrates were estimated from reference runs with MeGal3, MeGal4, Gal, Gal2, Gal3 and Gal4. Selected results are shown in Tables 2-8 below (the figures indicating weight percentage of glactooligosaccharides).

[2] = Degradation of MeGal4, products by HPAE-PAD; settings: for Gal2 in reaction products / Gal3 in reaction products / Gal4 in reaction products / Gal in reaction products / MeGal2 in reaction products / MeGal3 in reaction products / MeGal4 in reaction products / MeGal in reaction products: MeGal4 0.25 mg/ml, pH 6.5, 37° C.
Method: as §1

[3] = Activity on galactotriose (Gal3); settings: up to 24 hours; buffer, pH and temperature per enzyme
Method: as §1

B1: MTGAL: GH Family 53 galactanase from Myceliophthora thermophila, SEQ ID NO: 1 (wild type parent) (protein, listed as Myceliophthora thermophila)
chain: ALTYRGVDWSSVVVEERAGVSYKNTNGNAQPLENILAANGVNTVRQRVWVNPADGNYNLDYNIAIAKRAKAAGLGVYIDFHYSDTWADPAHQTMPAGWPSDIDNLSWKLYNYTLDAANKLQNAGIQPTIVSIGNEIRAGLLWPTGRTENWANIARLLHSAAWGIKDSSLSPKPKIMIHLDNGWDWGTQNWWYTNVLKQGTLELSDFDMMGVSFYPFYSSSATLSALKSSLDNMAKTWNKEIAVVETNWPISCPNPRYSFPSDVKNIPFSPEGQTTFITNVANIVSSVSRGVGLFYWEPAWIHNANLGSSCADNTMFSQSGQALSSLSVFQRI
modifications: mat_peptide (1)..()
[1]; incubation time 0.0 hours
  Gal2 in reaction products: 0.0 weight percentage
  Gal3 in reaction products: 0.0 weight percentage
  Gal in reaction products: 0.0 weight percentage
  MeGal2 in reaction products: 0.0 weight percentage
  MeGal3 in reaction products: 100.0 weight percentage
  MeGal in reaction products: 0.0 weight percentage
[1]; incubation time 0.5 hours
  Gal2 in reaction products: 0.0 weight percentage
  Gal3 in reaction products: 0.0 weight percentage
  Gal in reaction products: 0.0 weight percentage
  MeGal2 in reaction products: 2.7 weight percentage
  MeGal3 in reaction products: 87.2 weight percentage
  MeGal in reaction products: 10.1 weight percentage
[1]; incubation time 2.2 hours
  Gal2 in reaction products: 8.5 weight percentage
  Gal3 in reaction products: 0.4 weight percentage
  Gal in reaction products: 14.1 weight percentage
  MeGal2 in reaction products: 1.9 weight percentage
  MeGal3 in reaction products: 47.5 weight percentage
  MeGal in reaction products: 27.6 weight percentage
[1]; incubation time 5.0 hours
  Gal2 in reaction products: 10.9 weight percentage
  Gal3 in reaction products: 15.7 weight percentage
  Gal in reaction products: 2.2 weight percentage
  MeGal2 in reaction products: 3.2 weight percentage
  MeGal3 in reaction products: 50.6 weight percentage
  MeGal in reaction products: 17.4 weight percentage
[1]; incubation time 72.0 hours
  Gal2 in reaction products: 37.2 weight percentage
  Gal3 in reaction products: 23.2 weight percentage
  Gal in reaction products: 6.5 weight percentage
  MeGal2 in reaction products: 3.5 weight percentage
  MeGal3 in reaction products: 1.3 weight percentage
  MeGal in reaction products: 28.3 weight percentage
[1]; in words
  Release of MeGal versus MeGal2 from MeGal3: much higher release of MeGal than MeGal2
[2]; incubation time 0.0 hours
  Gal2 in reaction products: 0.0 weight percentage
  Gal3 in reaction products: 0.0 weight percentage
  Gal4 in reaction products: 0.0 weight percentage
  Gal in reaction products: 0.0 weight percentage
  MeGal2 in reaction products: 4.7 weight percentage
  MeGal3 in reaction products: 14.8 weight percentage
  MeGal4 in reaction products: 79.0 weight percentage
  MeGal in reaction products: 1.6 weight percentage
[2]; incubation time 0.5 hours
  Gal2 in reaction products: 3.3 weight percentage
  Gal3 in reaction products: 13.7 weight percentage
  Gal4 in reaction products: 2.5 weight percentage
  Gal in reaction products: 0.9 weight percentage
  MeGal2 in reaction products: 9.6 weight percentage
  MeGal3 in reaction products: 17.1 weight percentage
  MeGal4 in reaction products: 43.9 weight percentage
  MeGal in reaction products: 8.9 weight percentage
[2]; incubation time 2.0 hours
  Gal2 in reaction products: 10.9 weight percentage
  Gal3 in reaction products: 23.9 weight percentage
  Gal4 in reaction products: 3.7 weight percentage
  Gal in reaction products: 4.8 weight percentage
  MeGal2 in reaction products: 13.6 weight percentage
  MeGal3 in reaction products: 16.0 weight percentage
  MeGal4 in reaction products: 10.9 weight percentage
  MeGal in reaction products: 16.2 weight percentage
[2]; incubation time 5.0 hours
  Gal2 in reaction products: 20.1 weight percentage
  Gal3 in reaction products: 17.9 weight percentage
  Gal4 in reaction products: 2.9 weight percentage
  Gal in reaction products: 12.4 weight percentage
  MeGal2 in reaction products: 13.9 weight percentage
  MeGal3 in reaction products: 9.9 weight percentage
  MeGal4 in reaction products: 3.5 weight percentage
  MeGal in reaction products: 19.3 weight percentage
[2]; incubation time 24.0 hours
  Gal2 in reaction products: 32.7 weight percentage
  Gal3 in reaction products: 3.4 weight percentage
  Gal4 in reaction products: 1.1 weight percentage
  Gal in reaction products: 24.2 weight percentage
  MeGal2 in reaction products: 13.3 weight percentage
  MeGal3 in reaction products: 2.3 weight percentage
  MeGal4 in reaction products: 2.9 weight percentage
  MeGal in reaction products: 20.1 weight percentage
[2]; in words, buffer, pH and temperature per enzyme
  Products from MeGal4: initial release mainly of MeGal, MeGal2 and Gal3 and some Gal2 but little Gal
[3]
  Activity on Gal3, products: degraded Gal3 to Gal2 and Gal
